Assay results reported in patent US20090010941A1, “Methods for treating HIV” (priority 2007, published 2009).
Entries after “also recorded” stand apart in the source; their conditions may differ. Counter-ions that a name gives are not always drawn.

Legend:
[1] = system: HIV-1 infected macrophages; assay: Cell Death ELISA for histone-associated DNA fragmentation after Imatinib alone; assay type: cell-based, human; conditions: Imatinib alone 24 or 120 hours, no exogenous TRAIL, five days after infection
Method: ELISA for Caspase-3 cleavage (to active form) was obtained from Cell Signaling Technologies (Beverley Mass.). Briefly, 1.4×10^6 macrophages infected with WT and envelope-minus viruses were lysed according to the supplier's protocol, 1 hour after the addition of soluble recombinant Trail (100 ng ml-1). Protein content was determined by Bradford Assay (Bio-Rad, Hercules Calif.) and 220 μg of protein in 200 μl from each culture was assayed. ELISA for supernatant release of histone associated DNA fragments released after induced cell death (Roche, Nutley N.J.) was used to measure macrophage longevity. […] In some experiments an MTT assay (Sigma, St. Louis Mo.) was used to measure cell viability. Fluorescent detection of active caspases was performed by pre-treating cells with red-VAD-FMK and flow cytometry according to the manufacturer's protocol (EMD biosciences). For the measurement of apoptosis by Annexin V and propidium iodide staining in flow cytometry reagents were obtained from BioVision (Mountain View Calif.) and used according to the supplier's protocol.

[2] = in vivo; cited from earlier work
[3] = system: Bcl-2, Mcl-1, BclXL, BimL, Bmf and cFLIP; assay: Western blotting of pro- and anti-apoptotic proteins in the TRAIL signaling pathway; assay type: cell-based, human; conditions: HIV-1 LAI WT infected macrophages, 2 μM Imatinib 16 hours
Method: FIG. 11 provides a set of six protein immunoblot images. […] Protein levels of Bcl-2, Mcl-1, BClxL, BimL, Bmf and cFLIP were determined by Western blotting.
It has been shown that envelope induces over-expression of anti-apoptotic genes, Mcl-1, Bfl-1, cIAP-1, cIAP-2 and XIAP, that function in preventing mitochondrial and caspase-mediated apoptosis by TRAIL (Salvesen and Duckett, 2002; Zhang & Fang, 2005; Han et al., 2006).

[4] = system: TRAIL-R1 expression on HIV-1 infected macrophages; assay type: cell-based, human
HIV-1 LAI = assay: Virus production with increasing concentrations of TRAIL (reverse transcriptase); assay type: cell-based, human; conditions: 16 hours
Method: (§1) FIG. 5. provides three graphs showing that cell viability and virus production in the presence of TRAIL requires an intact envelope gene and is augmented by M-CSF. Macrophage viability and virus production in the presence of increasing concentrations of TRAIL is shown in FIG. 5A and FIG. 5B, respectively. Four days after infection with pseudotyped HIV-1 LAI WT or Δenv viruses, macrophages were incubated with increasing concentrations of soluble TRAIL and cell viability (FIG. 5A) and virus production (FIG. 5B) determined after 16 hours by MTT assay and reverse transcriptase production, respectively. Activated CD8+ T cells suppress viral replication in macrophages via TRAIL (FIG. 5C). Macrophages were infected with pseudotyped wild-type or envelope-minus HIV-1 LAI variants and monitored for virus production in a 24 hour period after incubation with Anti-CD3/CD28 stimulated autologous CD8+ TRAIL+T lymphocytes for 4 hours. Macrophages were pre-treated for 16 hours with M-CSF neutralizing antibody or isotype control and T cells were preincubated with recombinant TRAIL-R1 or control receptor (5 μg·ml-1) for 1 hour.
The differential sensitivity of wild type and envelope minus HIV-1 infected macrophages to TRAIL-mediated cell killing correlated with the concentration of TRAIL required to impact cell viability and virus production. […]

[5] = system: HIV-1 LAI infected macrophages; assay: Macrophage viability with increasing concentrations of TRAIL (MTT assay); assay type: cell-based, human; conditions: 16 hours
Method: as §1, with “hour. […]” for “hour.”
ELISA for Caspase-3 cleavage (to active form) was obtained from Cell Signaling Technologies (Beverley Mass.). […] Protein content was determined by Bradford Assay (Bio-Rad, Hercules Calif.) and 220 μg of protein in 200 μl from each culture was assayed. […]

[6] = system: HIV-1 infected macrophages; assay: Macrophage half-life in the presence of TRAIL (cell death ELISA); assay type: cell-based, human; conditions: soluble TRAIL 100 ng·ml-1
Method: (§2) Macrophages were infected with pseudotyped wild-type or envelope-minus HIV-1 LAI variants and monitored for virus production (FIG. 4A). At 8 days post infection, cultures were incubated with soluble TRAIL (100 ng·ml-1) and apoptosis determined by ELISA for active (cleaved) Caspase 3. […] Macrophage cultures, equally infected with pseudotyped HIV-1 LAI WT or Δenv viruses or mock infected, were examined by phase contrast microscopy after incubation with 100 ng/ml TRAIL (1 hour treatment with TRAIL followed by 5 hours incubation after removal of TRAIL). […] Eight days after infection with pseudotyped HIV-1 LAI WT or Δenv viruses, macrophages were incubated with soluble TRAIL (100 ng·ml-1) and percentage of viable cells remaining extrapolated from the level of cell death determined from ELISA. Macrophage half-life was calculated from the linear regression slope and expressed in hours+/−SD.
Macrophages are a long-lived reservoir of HIV in vivo and a source of viral rebound (reviewed in Stevenson, 2003). The evasion of apoptosis in other human viral infections contributes to viral persistence and enables the infected cell to survive in the face of a hostile microenvironment (Raftery et al., 2001; Secchiero et al., 2001; Tollefson et al. 1998; Tollefson et al. 2001). Therefore we determined the half-life of HIV-1 infected macrophages in the presence of a concentration of TRAIL capable of inducing apoptosis. […] Thus resistance to TRAIL can potentially provide a significant advantage to macrophages infected by HIV-1.
ELISA for Caspase-3 cleavage (to active form) was obtained from Cell Signaling Technologies (Beverley Mass.). Briefly, 1.4×10^6 macrophages infected with WT and envelope-minus viruses were lysed according to the supplier's protocol, 1 hour after the addition of soluble recombinant Trail (100 ng ml-1). Protein content was determined by Bradford Assay (Bio-Rad, Hercules Calif.) and 220 μg of protein in 200 μl from each culture was assayed. […]

[7] = system: HIV-1 infected macrophages; assay: Apoptosis by Annexin V and propidium iodide staining and flow cytometry; assay type: cell-based, human; conditions: TRAIL exposure without Imatinib treatment
[8] = system: HIV-1 infected macrophages; assay: TRAIL-mediated apoptosis by ELISA for active (cleaved) Caspase 3; assay type: cell-based, human; conditions: HIV-1 WT infected macrophages, Day 2
Method: as §2
Relationship of apoptosis by TRAIL, M-CSF release and TRAIL-R1 expression in macrophages infected with pseudotyped wild type or envelope minus HIV-1 HSA viruses. In FIG. 6A, M-CSF release as a function of time was determined by ELISA. In FIG. 6B, TRAIL-R1 expression as a function of time was measured by flow cytometry. In FIG. 6C, TRAIL-mediated apoptosis in macrophages was analyzed by ELISA for active (cleaved) Caspase 3 in parallel cultures during the infection (Error bars, SD). […]

[9] = macrophages infected with pseudotyped HIV-1 LAI Δenv
[10] = macrophages infected with pseudotyped wild type HIV-1 LAI

## Cc1ccc(NC(=O)c2ccc(CN3CCN(C)CC3)cc2)cc1Nc1nccc(-c2cccnc2)n1 [Imatinib, Imatinib mesylate]
[1]
  apoptosis (histone-associated DNA fragmentation) of wild-type-infected macrophages: results in apoptosis of wild-type-infected macrophages; also recorded: removed the requirement for exogenous TRAIL
[2]
  bioavailability to the brain: poor bioavailability to the brain
[3]
  expression of pro- and anti-apoptotic proteins: cause a shift in the expression of the proteins in favor of cellular apoptosis
[4]; uninfected macrophages, also those in cultures of infected cells, Imatinib 16 hours
  TRAIL-R1 expression on uninfected macrophages: did not promote TRAIL-R1 expression

B1: TRAIL: soluble human recombinant TRAIL (TNF-related apoptosis-inducing ligand) obtained from Axxora LLC (protein, UniProt P50591 39-281, looked up)
extracellular domain: TNELKQMQDKYSKSGIACFLKEDDSYWDPNDEESMNSPCWQVKWQLRQLVRKMILRTSEETISTVQEKQQNISPLVRERGPQRVAAHITGTRGRSNTLSSPNSKNEKALGRKINSWESSRSGHSFLSNLHLRNGELVIHEKGFYYIYSQTYFRFQEEIKENTKNDKQMVQYIYKYTSYPDPILLMKSARNSCWSKDAEYGLYSIYQGGIFELKENDRIFVSVTNEHLIDMDHEASFFGAFLVG
modifications: extracellular domain
notes: soluble human recombinant TRAIL (TNF-related apoptosis-inducing ligand) obtained from Axxora LLC
HIV-1 LAI; [9]
  TRAIL concentration effecting ~50% reduction in virus output: 3 ng/mL
HIV-1 LAI; [10]
  TRAIL concentration required for ~50% reduction in virus output: > 50 ng/mL
[5]; [9]
  TRAIL concentration effecting ~50% reduction in cell viability: 3 ng/mL
[5]; [10]
  TRAIL concentration required for ~50% reduction in viability: > 30 ng/mL
[6]; HIV-1 Δenv infected macrophages
  macrophage half-life in the presence of TRAIL: around 36 hours
[6]; mock infected cultures
  macrophage half-life in the presence of TRAIL: 81 h
[6]; wild type infected cultures
  macrophage half-life in the presence of TRAIL: 110 h
[7]
  apoptosis of infected macrophages: 3.9%
[8]
  TRAIL-induced active caspase 3 elevation: 3 fold

B2: exogenous M-CSF: recombinant macrophage colony stimulating factor added to macrophage cultures (protein, UniProt P09603 33-554, looked up)
Macrophage colony-stimulating …: EEVSEYCSHMIGSGHLQSLQRLIDSQMETSCQITFEFVDQEQLKDPVCYLKKAFLLVQDIMEDTMRFRDNTPNAIAIVQLQELSLRLKSCFTKDYEEHDKACVRTFYETPLQLLEKVKNVFNETKNLLDKDWNIFSKNCNNSFAECSSQDVVTKPDCNCLYPKAIPSSDPASVSPHQPLAPSMAPVAGLTWEDSEGTEGSSLLPGEQPLHTVDPGSAKQRPPRSTCQSFEPPETPVVKDSTIGGSPQPRPSVGAFNPGMEDILDSAMGTNWVPEEASGEASEIPVPQGTELSPSRPGGGSMQTEPARPSNFLSASSPLPASAKGQQPADVTGTALPRVGPVRPTGQDWNHTPQKTDHPSALLRDPPEPGSPRISSLRPQGLSNPSTLSAQPQLSRSHSSGSVLPLGELEGRRSTRDRRSPAEPEGGPASEGAARPLPRFNSVPLTDTGHERQSEGSFSPQLQESVFHLLVPSVILVLLAVGGLLFYRWRRRSHQEPQRADSPLEQPEGSPLTQDDRQVELPV
[4]; macrophages infected with an envelope defective virus, exogenous M-CSF 16 hours
  TRAIL-R1 expression: down-regulated TRAIL-R1
